Legend:
beta-NGF (Homo sapiens) [1] = target: beta-NGF (Homo sapiens) (UniProt P01138); experiment: cell_activity; settings: PC12 neurite growth, 0.38 nM NGF
beta-NGF (Homo sapiens) [2] = target: beta-NGF (Homo sapiens) (UniProt P01138); experiment: filter; settings: BndU at Z' (n) positions [n positions 30,37,38,43,44,45,51,52,54 = modified dU]; SB17T-0.002, 37 C; Zorbax resin capture

beta-NGF (Homo sapiens), sequence (P01138 122-241): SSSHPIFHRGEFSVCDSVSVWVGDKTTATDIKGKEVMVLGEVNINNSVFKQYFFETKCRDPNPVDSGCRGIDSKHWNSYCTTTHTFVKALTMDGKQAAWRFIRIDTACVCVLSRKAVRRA

Sequence	IC50 (beta-NGF (Homo sapiens) [1]; BndU at Z' (n) positions, 3'-idT in cell assays [n positions 3,10,11,16,17,18,24,25,27 = modified dU]) [nM]	Kd (beta-NGF (Homo sapiens) [2]) [nM]	IC50 (beta-NGF (Homo sapiens) [1]; BndU at Z' (n) positions [n positions 30,37,38,43,44,45,51,52,54 = modified dU], 3'-idT) [nM]
CATGAGGACTTGGGGTTTAGCCGTTGTG [2426-66-50]	1		
GAGTGACCGTCTGCCTGCAGCGGGACACATGAGGACTTGGGGTTTAGCCGTTGTGGCACAGAGAAGAAACAAGACC [2426-66]		5	2

Reference: patent US20130012693
